The target of this series is Fpr C151Stop (Fowlpox virus) (UniProt A0A385H9X4). As to the kind of experiment: fluorescence polarization. The note with it: FP: 25 mM Tris-HCl pH 7.4, 100 mM NaCl, 5 mM EDTA, 1% glycerol, 10 nM DNA, 37 C 20 min, protein as dimer; NMR: 25 mM L-Arg, 25 mM L-Glu, 303 K. (Fluorescence polarisation rises when a labelled molecule tumbles more slowly, as on binding a larger partner.)

“CGGAGGCCTAGCGTCCGGAATTCTCGTTTCGAGAATTCCGGATTAGGGATCCGCG / CGCGGATCCCTAAGCTCCATCGATCGTTTCGATCGATGGAGCCGCTAGGCCTCCG [F13/13HJ (FHJ13/13)]” displayed an equilibrium dissociation constant (Kd) of 0.168 µM.

By Kd is commonly meant the free concentration of one partner at which half of the binding sites on the other are occupied at equilibrium, for simple one-to-one binding.

The values above are taken from article PMC6962361.
